Experimental data as given in patent US20090258001A1.

Assays:
[1] = molecular target: CD3 (CD3/TCR complex) on CD4+ and CD8+ T cells of patients (human) (UniProt P07766)
[2] = molecular target: CD3 (CD3/TCR complex) on CD4+ and CD8+ T cells of patients (human) (UniProt P07766); assay: flow cytometry of CD4+ T cells, anti-human IgG; Example 3 Cohort 3, end of 0.1 mg infusion
[3] = molecular target: CD3 (CD3/TCR complex) on CD4+ and CD8+ T cells of patients (human) (UniProt P07766); assay: flow cytometry of CD4+ T cells, anti-human IgG; Example 3 Cohort 3, end of 0.5 mg infusion
[4] = molecular target: CD3 (CD3/TCR complex) on CD4+ and CD8+ T cells of patients (human) (UniProt P07766); assay: flow cytometry of CD4+ T cells, anti-human IgG; Example 4 Cohort A, end of 0.2 mg infusion
[5] = molecular target: CD3 (CD3/TCR complex) on CD4+ and CD8+ T cells of patients (human) (UniProt P07766); assay: flow cytometry of CD4+ T cells, anti-human IgG; Example 4 Cohort B, end of 0.1 mg infusion
[6] = molecular target: CD3 (CD3/TCR complex) on CD4+ and CD8+ T cells of patients (human) (UniProt P07766); assay: flow cytometry of CD4+ T cells, anti-human IgG; Example 4 Cohort C, end of 1.0 mg infusion
[7] = molecular target: CD3 (CD3/TCR complex) on CD4+ and CD8+ T cells of patients (human) (UniProt P07766); assay: flow cytometry of CD4+ T cells, anti-human IgG; Example 4 Cohort A*, end of 0.1 mg infusion
[8] = molecular target: CD3 (CD3/TCR complex) on CD4+ and CD8+ T cells of patients (human) (UniProt P07766); assay: flow cytometry of CD4+ T cells, anti-human IgG; Example 4 Cohort A*, end of 0.25 mg infusion
[9] = molecular target: CD3 (CD3/TCR complex) on CD4+ and CD8+ T cells of patients (human) (UniProt P07766); assay: flow cytometry of CD4+ T cells, anti-human IgG; Example 3 Cohort 2 (0.5 mg x3), end of infusion
[10] = molecular target: CD3 (CD3/TCR complex) on CD4+ and CD8+ T cells of patients (human) (UniProt P07766); assay: flow cytometry of CD4+ T cells, free CD3 sites by biotinylated TRX4; Example 3 Cohort 3, 0.1 mg
[11] = molecular target: CD3 (CD3/TCR complex) on CD4+ and CD8+ T cells of patients (human) (UniProt P07766); assay: flow cytometry of CD4+ T cells, free CD3 sites by biotinylated TRX4; Example 4 Cohort A, 0.1 mg
[12] = molecular target: CD3 (CD3/TCR complex) on CD4+ and CD8+ T cells of patients (human) (UniProt P07766); assay: flow cytometry of CD4+ T cells, free CD3 sites by biotinylated TRX4; Example 4 Cohort A, 0.2 mg
[13] = molecular target: CD3 (CD3/TCR complex) on CD4+ and CD8+ T cells of patients (human) (UniProt P07766); assay: flow cytometry of CD4+ T cells, free CD3 sites by biotinylated TRX4; Example 4 Cohort A, 0.3 mg
[14] = molecular target: CD3 (CD3/TCR complex) on CD4+ and CD8+ T cells of patients (human) (UniProt P07766); assay: flow cytometry of CD4+ T cells, free CD3 sites by biotinylated TRX4; Example 4 Cohort A*, 0.1 mg
[15] = molecular target: CD3 (CD3/TCR complex) on CD4+ and CD8+ T cells of patients (human) (UniProt P07766); assay: flow cytometry of CD4+ T cells, free CD3 sites by biotinylated TRX4; Example 4 Cohort A*, 0.15 mg
[16] = molecular target: CD3 (CD3/TCR complex) on CD4+ and CD8+ T cells of patients (human) (UniProt P07766); assay: flow cytometry of CD4+ T cells, free CD3 sites by biotinylated TRX4; Example 4 Cohort A*, 0.25 mg
[17] = molecular target: CD3 (CD3/TCR complex) on CD4+ and CD8+ T cells of patients (human) (UniProt P07766); assay: flow cytometry of CD4+ T cells, anti-human IgG; Example 4 Cohort C, 2 hours after 1.0 mg infusion
[18] = molecular target: CD3 (CD3/TCR complex) on CD4+ and CD8+ T cells of patients (human) (UniProt P07766); assay: flow cytometry of CD4+ T cells, anti-human IgG; Example 4 Cohort B, 2 hours after 0.75 mg infusion
[19] = molecular target: CD3 (CD3/TCR complex) on CD4+ and CD8+ T cells of patients (human) (UniProt P07766); assay: flow cytometry of CD4+ T cells, anti-human IgG; Example 4 Cohort C, about 24 hours after 1.0 mg infusion
[20] = molecular target: CD3 (CD3/TCR complex) on CD4+ and CD8+ T cells of patients (human) (UniProt P07766); assay: flow cytometry of CD4+ T cells, anti-human IgG; Example 4 Cohort B, about 24 hours after 0.75 mg infusion
[21] = molecular target: CD3 (CD3/TCR complex) on CD4+ and CD8+ T cells of patients (human) (UniProt P07766); assay: flow cytometry of CD4+ T cells, anti-human IgG; Example 3 Cohort 2 (0.5 mg x3), 2 hours after end of dosing
[22] = molecular target: CD3 (CD3/TCR complex) on CD4+ and CD8+ T cells of patients (human) (UniProt P07766); assay: flow cytometry of CD4+ T cells, free CD3 sites by biotinylated TRX4; Example 3 Cohort 2, second 0.5 mg dose
[23] = molecular target: CD3 (CD3/TCR complex) on CD4+ and CD8+ T cells of patients (human) (UniProt P07766); assay: flow cytometry of CD4+ T cells, free CD3 sites by biotinylated TRX4; Example 4 Cohort C, 2 hours after last infusion
[24] = molecular target: CD3 (CD3/TCR complex) on CD4+ and CD8+ T cells of patients (human) (UniProt P07766); assay: flow cytometry of CD4+ T cells, free CD3 sites by biotinylated TRX4; Example 3 Cohort 1, end of first 0.1 mg infusion
[25] = molecular target: CD3 (CD3/TCR complex) on CD4+ and CD8+ T cells of patients (human) (UniProt P07766); assay: flow cytometry of CD4+ T cells, free CD3 sites by biotinylated TRX4; Example 3 Cohort 3, 2 hours after 0.5 mg infusion

Sequence of UniProt P07766 (P07766 23-207, chain 1 of 3): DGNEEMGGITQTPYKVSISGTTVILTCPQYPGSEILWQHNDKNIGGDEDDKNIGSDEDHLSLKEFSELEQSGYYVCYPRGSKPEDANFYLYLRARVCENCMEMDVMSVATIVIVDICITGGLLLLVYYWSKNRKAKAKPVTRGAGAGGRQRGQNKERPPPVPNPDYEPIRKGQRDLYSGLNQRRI
Sequence of UniProt P07766 (chain, as listed by the source, chain 2 of 3): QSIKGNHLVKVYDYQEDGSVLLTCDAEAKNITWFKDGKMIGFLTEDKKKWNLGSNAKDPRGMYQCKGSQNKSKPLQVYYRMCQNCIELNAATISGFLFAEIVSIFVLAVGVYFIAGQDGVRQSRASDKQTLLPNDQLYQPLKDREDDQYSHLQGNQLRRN
Sequence of UniProt P07766 (chain, as listed by the source, chain 3 of 3): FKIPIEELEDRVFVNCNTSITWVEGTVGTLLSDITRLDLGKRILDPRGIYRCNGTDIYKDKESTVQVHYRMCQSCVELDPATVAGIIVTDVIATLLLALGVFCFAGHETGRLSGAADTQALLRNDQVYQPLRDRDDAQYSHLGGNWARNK

TRX4 antibody
CD3/TCR modulation (decrease in MESF of TCR αβ on T cells, stained with non-competing antibody BMA031) [1]: > 80%
cell-bound TRX4 (MESF of anti-human IgG) [2]: 100000 MESF units
cell-bound TRX4 (MESF of anti-human IgG) [3]: 800000 MESF units
cell-bound TRX4 (MESF of anti-human IgG) [4]: 375000 MESF units
cell-bound TRX4 (MESF of anti-human IgG) [5]: 2e+06 MESF units
cell-bound TRX4 (MESF of anti-human IgG) [6]: 750000 MESF units
cell-bound TRX4 (MESF of anti-human IgG) [7]: 700000 MESF units
cell-bound TRX4 (MESF of anti-human IgG) [8]: 80000 MESF units
cell-bound TRX4 (MESF of anti-human IgG) [9]: 600000 MESF units
percent saturation of CD3 [10]: 45%
percent saturation of CD3 [11]: 40%
percent saturation of CD3 [12]: 70%
percent saturation of CD3 [13]: 85%
percent saturation of CD3 [14]: 70%
percent saturation of CD3 [15]: 80%
percent saturation of CD3 [16]: 95%
cell-bound TRX4 (MESF of anti-human IgG) [17]: 600000 MESF units
cell-bound TRX4 (MESF of anti-human IgG) [18]: 550000 MESF units
cell-bound TRX4 (MESF of anti-human IgG) [19]: 200000 MESF units
cell-bound TRX4 (MESF of anti-human IgG) [20]: 200000 MESF units
cell-bound TRX4 (MESF of anti-human IgG) [21]: 400000 MESF units
percent saturation of CD3 [22]: 80%
percent saturation of CD3 [23]: 50%
percent saturation of CD3 [24]: 37%
percent saturation of CD3 [25]: 45%
